# Laboratory results: article PMC7412702
# B1: HA-tagged wild-type human ZP1 [human] / MYC-tagged human wild-type ZP3 [human] (parent)
# chain 1: RWLQPDPGLPGLRHSYDCGIKGMQLLVFPRPGQTLRFKVVDEFGNRFDVNNCSICYHWVTSRPQEPAVFSADYRGCHVLEKDGRFHLRVFMEAVLPNGRVDVAQDATLICPKPDPSRTLDSQLAPPAMFSVSTPQTLSFLPTSGHTSQGSGHAFPSPLDPGHSSVHPTPALPSPGPGPTLATLAQPHWGTLEHWDVNKRDYIGTHLSQEQCQVASGHLPCIVRRTSKEACQQAGCCYDNTREVPCYYGNTATVQCFRDGYFVLVVSQEMALTHRITLANIHLAYAPTSCSPTQHTEAFVVFYFPLTHCGTTMQVAGDQLIYENWLVSGIHIQKGPQGSITRDSTFQLHVRCVFNASDFLPIQASIFPPPSPAPMTQPGPLRLELRIAKDETFSSYYGEDDYPIVRLLREPVHVEVRLLQRTDPNLVLLLHQCWGAPSANPFQQPQWPILSDGCPFKGDSYRTQMVALDGATPFQSHYQRFTVATFALLDSGSQRALRGLVYLFCSTSACHTSGLETCSTACSTGTTRQ
# chain 2: QPLWLLQGGASHPETSVQPVLVECQEATLMVMVSKDLFGTGKLIRAADLTLGPEACEPLVSMDTEDVVRFEVGLHECGNSMQVTDDALVYSTFLLHDPRPVGNLSIVRTNRAEIPIECRYPRQGNVSSQAILPTWLPFRTTVFSEEKLTFSLRLMEENWNAEKRSPTFHLGDAAHLQAEIHTGSHVPLRLFVDHCVATPTPDQNASPYHTIVDFHGCLVDGLTDASSAFKVPRPGPDTLQFTVDVFHFANDSRNMIYITCHLKVTLAEQDPDELNKACSFSKPSNSWFPVEGSADICQCCNKGDCGTPSHSRRQPHVMSQWSRSASRN
# B2: MYC-tagged human wild-type ZP3 [human] / HA-tagged wild-type human ZP1 [human] (parent)
# chain 1: B1 chain 2
# chain 2: B1 chain 1
# Variants of: B1
# Assay: co-IP (IP: anti-HA, blot anti-MYC), densitometry
# Conditions: with MYC-tagged human wild-type ZP3 [human]; HeLa cells; mutant lane co-transfected with HA-ZP1WT + HA-ZP1R109H + MYC-ZP3 (imitating heterozygous state); parent lane HA-ZP1WT + MYC-ZP3; parent: 1; read off a plot; scale: relative protein level
row,Variant,response
1,chain 1 R84H,0.22

# Variants of: B2
# Assay: co-IP (IP: MYC as labelled in the image, blot anti-HA), densitometry
# Conditions: with HA-tagged wild-type human ZP1 [human]; HeLa cells; mutant lane co-transfected with MYC-ZP3WT + MYC-ZP3A134T + HA-ZP1 (imitating heterozygous state); parent lane MYC-ZP3WT + HA-ZP1; parent: 1; read off a plot; scale: relative protein level
row,Variant,response
1,chain 1 A112T,0.87
